Patent US20250092151A1 (ALTRUBIO, published 2025)

T1: human P-selectin glycoprotein ligand-1 (PSGL-1), expressed on Sp2/0-hPSGL-1 cells (human, UniProt Q14242 42-412)
T1 construct: Sp2/0 cells transfected with human PSGL-1; also called human PSGL-1; SELPLG
T1 sequence: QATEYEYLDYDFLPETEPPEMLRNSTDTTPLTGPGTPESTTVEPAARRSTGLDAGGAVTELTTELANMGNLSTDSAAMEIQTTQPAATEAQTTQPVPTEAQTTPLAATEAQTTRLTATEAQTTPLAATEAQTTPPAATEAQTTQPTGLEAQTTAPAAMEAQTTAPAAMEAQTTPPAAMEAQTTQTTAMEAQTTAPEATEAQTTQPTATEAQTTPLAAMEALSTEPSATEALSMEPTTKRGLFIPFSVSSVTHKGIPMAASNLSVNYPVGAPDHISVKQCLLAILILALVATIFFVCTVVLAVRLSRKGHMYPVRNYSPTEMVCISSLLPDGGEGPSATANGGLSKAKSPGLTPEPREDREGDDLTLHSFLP


Assays:
[1] = target: T1, human P-selectin glycoprotein ligand-1 …; test: flow cytometry on Sp2/0-hPSGL-1 cells, antibody at 0.3 µg/mL
Experimental: (§1) Sp2/0 cells transfected with human PSGL-1 (Sp2/0-hPSGL1) were used as the PSGL-1 expressing cell line. Sp2/0-hPSGL1 cells were centrifuged at 1200 rpm for 5 min. The cell pellets were resuspended in FACS buffer (PBS containing 1% FBS) and pipetted into 96 well plate (1×10⁵ cells/well). To each well was added 100 μl of supernatants containing humanized 15A7H (h15A7H)/tetravalent antibodies, and these were incubated for 60 min at 4° C. The cells were washed three times with cold FACS buffer and then incubated with 100 μl of Mouse Anti-Human IgG₄ pFc′-PE (SouthernBiotech Cat. no. 9190-09) at 1 μg/ml concentration for 60 min at 4° C. Subsequently, the cells were washed three times with cold FACS buffer and analyzed by FACS analysis. All flow cytometric analyses were performed on a BD-LSR flow cytometer (Becton Dickinson) using the Cell Quest software.
(§2) The binding ability of h15A7H tetravalent antibodies was evaluated in human PSGL-1 SP2/O cells. The h15A7H tetravalent antibody bound positively to the SP2/O-hPSGL-1, but not to parental SP2/O cell lacking of hPSGL-1 antigen (Table A below). Additionally, wild type h15A7H and all of h15A7H tetravalent antibodies gave similar binding activity on SP2/O-hPSGL-1 (Table A).

[2] = target: T1, human P-selectin glycoprotein ligand-1 …; test: flow cytometry on Sp2/0-hPSGL-1 cells, antibody at 3 µg/mL
Experimental: as §1, §2

[3] = target: T1, human P-selectin glycoprotein ligand-1 …; test: cell-based or functional assay
[4] = target: T1, human P-selectin glycoprotein ligand-1 …; test: flow cytometry on Sp2/0-hPSGL-1 cells, antibody at 0.1 µg/mL
Experimental: as §1, §2

[5] = target: T1, human P-selectin glycoprotein ligand-1 …; test: flow cytometry on Sp2/0-hPSGL-1 cells, antibody at 1 µg/mL
Experimental: as §1, §2

mean fluorescence intensity [1]	mean fluorescence intensity [2]	Apoptosis % (background subtracted, n = 4), mean, at 0.0625 µg/mL, SP2/O-hPSGL-1 cells, Annexin V/PI [3]	Apoptosis % (background subtracted, n = 4), mean, at 0.5 µg/mL, SP2/O-hPSGL-1 cells, Annexin V/PI [3]	mean fluorescence intensity [4]	mean fluorescence intensity [5]	Binder
3480 MFI	6030 MFI	0.5%	18%	3040 MFI	5820 MFI	h15A7H LC-scFv2-IgG4p (antibody, Tetravalent: a v2 scFv fused to the C-terminus of each kappa light chain of h15A7H IgG4p) light: DIQMTQSPSSLSASVGDRVTITCRSSQSIVHNDGNTYFEWYQQKPGKAPKLLIYKVSNRFSGVPSRFSGSGSGTHFTLTISSLQPEDFATYYCFQGSYVPLTFGQGTKVEIKRTVAAPSVFIFPPSDEQLKSGTASVVCLLNNFYPREAKVQWKVDNALQSGNSQESVTEQDSKDSTYSLSSTLTLSKADYEKHKVYACEVTHQGLSSPVTKSFNRGECGGGGSGGGGSEVQLVESGGGLVQPGGSLRLSCAASGFTFSSFGMHWVRQAPGKCLEWVAYINGGSSTIFYANAVKGRFTISRDNAKNTLYLQMNSLRAEDTAVYYCARYASYGGGAMDYWGQGTLVTVSSGGGGSGGGGSGGGGSGGGGSGGGGSDIQMTQSPSSLSASVGDRVTITCRSSQSIVHNDGNTYFEWYQQKPGKAPKLLIYKVSNRFSGVPSRFSGSGSGTHFTLTISSLQPEDFATYYCFQGSYVPLTFGCGTKVEIKAAAHHHHHHHHHH heavy: not shown
5940 MFI	4670 MFI	1.5%	2.75%	3410 MFI	6400 MFI	h15A7H (antibody, IgG4, V domains shown, Bivalent humanized IgG4 kappa antibody with the S228P hinge mutation; also called humanized 15A7H; wild type h15A7H; not shown: human immunoglobulin kappa light chain constant region) VH: EVQLVESGGGLVQPGGSLRLSCAASGFTFSSFGMHWVRQAPGKGLEWVAYINGGSSTIFYANAVKGRFTISRDNAKNTLYLQMNSLRAEDTAVYYCARYASYGGGAMDYWGQGTLVTVSS VL: DIQMTQSPSSLSASVGDRVTITCRSSQSIVHNDGNTYFEWYQQKPGKAPKLLIYKVSNRFSGVPSRFSGSGSGTHFTLTISSLQPEDFATYYCFQGSYVPLTFGQGTKVEIK
4640 MFI	5940 MFI	1.75%	35.8%	2640 MFI	6010 MFI	h15A7H scFv4-crIgG4p (antibody, Tetravalent: four v2 scFv units fused without a linker to the N-termini of the kappa and IgG4p constant regions) light: EVQLVESGGGLVQPGGSLRLSCAASGFTFSSFGMHWVRQAPGKCLEWVAYINGGSSTIFYANAVKGRFTISRDNAKNTLYLQMNSLRAEDTAVYYCARYASYGGGAMDYWGQGTLVTVSSGGGGSGGGGSGGGGSGGGGSGGGGSDIQMTQSPSSLSASVGDRVTITCRSSQSIVHNDGNTYFEWYQQKPGKAPKLLIYKVSNRFSGVPSRFSGSGSGTHFTLTISSLQPEDFATYYCFQGSYVPLTFGCGTKVEIKRTVAAPSVFIFPPSDEQLKSGTASVVCLLNNFYPREAKVQWKVDNALQSGNSQESVTEQDSKDSTYSLSSTLTLSKADYEKHKVYACEVTHQGLSSPVTKSFNRGEC heavy: not shown
7060 MFI	4380 MFI	15.5%	23.8%	5540 MFI	5740 MFI	h15A7H scFv2-LC-IgG4p (antibody, Tetravalent: a v2 scFv fused to the N-terminus of each kappa light chain of h15A7H IgG4p) light: EVQLVESGGGLVQPGGSLRLSCAASGFTFSSFGMHWVRQAPGKCLEWVAYINGGSSTIFYANAVKGRFTISRDNAKNTLYLQMNSLRAEDTAVYYCARYASYGGGAMDYWGQGTLVTVSSGGGGSGGGGSGGGGSGGGGSGGGGSDIQMTQSPSSLSASVGDRVTITCRSSQSIVHNDGNTYFEWYQQKPGKAPKLLIYKVSNRFSGVPSRFSGSGSGTHFTLTISSLQPEDFATYYCFQGSYVPLTFGCGTKVEIKASTGSGGGGSDIQMTQSPSSLSASVGDRVTITCRSSQSIVHNDGNTYFEWYQQKPGKAPKLLIYKVSNRFSGVPSRFSGSGSGTHFTLTISSLQPEDFATYYCFQGSYVPLTFGQGTKVEIKRTVAAPSVFIFPPSDEQLKSGTASVVCLLNNFYPREAKVQWKVDNALQSGNSQESVTEQDSKDSTYSLSSTLTLSKADYEKHKVYACEVTHQGLSSPVTKSFNRGEC heavy: not shown
